Measured values reported in US20200262927A1 (OXFORD BIOTHERAPEUTICS, published 2020).

Columns and labels:
[1] = target: T1, Recombinant hCRTAM/Fc Chimera (R&D Systems, Catalogue 1695-CR) (human, UniProt O95727 18-286); assay: Octet BLI, antibody captured on anti-human IgG Fc biosensors, hCRTAM/Fc chimera as analyte, global 1:1 fit
T1 construct: also called human recombinant hCRTAM/Fc chimera; Fc part of the bought chimera not given
T1 sequence: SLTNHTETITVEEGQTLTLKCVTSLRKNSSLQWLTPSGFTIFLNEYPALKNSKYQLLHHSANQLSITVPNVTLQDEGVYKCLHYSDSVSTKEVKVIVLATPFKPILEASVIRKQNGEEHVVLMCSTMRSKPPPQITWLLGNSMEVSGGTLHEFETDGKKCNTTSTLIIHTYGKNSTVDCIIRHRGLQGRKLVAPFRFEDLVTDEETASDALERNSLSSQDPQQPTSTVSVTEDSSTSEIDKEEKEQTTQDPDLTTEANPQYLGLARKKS
Procedure: (§1) Anti-human IgG-Fc Capture (AHC) ForteBio biosensors were loaded with the test antibodies at a concentration of 1 μg/mL over 300 seconds.
(§2) The loaded biosensors were incubated with 5 concentrations of human recombinant hCRTAM/Fc chimera starting at 200 nM, which was serially diluted 1:3; a reference well contained kinetic buffer only (to correct for drift).
(§3) The data from all concentrations were fit using a global 1:1 curve fit for each sample. Where possible the kinetic association and dissociation rates and the KD values were determined.

[2] = target: T1, Recombinant hCRTAM/Fc Chimera (R&D …); assay: Octet BLI, antibody captured on anti-human IgG Fc biosensors, hCRTAM/Fc chimera as analyte from 200 nM diluted 1:3, global 1:1 fit
Procedure: as §1, §2, §3

B1: humanised 5A11 antibody (antibody, V domains shown)
VH: EVQLVESGGGLVQPGGSLKLSCAASGFTFSDAAMYWVRQASGKGLEWVARIRTKTNNYAAHYVESVKGRFTVSRDDSKNTVYLQMNSLKTEDTAMYYCTSVPQGTQDYWGQGTLVTVSS
VL: SYELTQPSSVSVSPGQTARITCSGDVLSKRYAQWSQQKPGQAIVSVIYKDSERPSGIPERFSGSSSGTTATLTISGAQVEDEADYYCLSTYADDNLPVFGGGTKLTVL
notes: Captured on anti-human IgG Fc biosensors, so it carried a human IgG Fc; also called humanized antibody 5A11
B1 was tested, and the koff [1] was 0.00011 s⁻¹, the kon [1] was 249000 M⁻¹ s⁻¹ and the Kd [2] was 0.439 nM.
